Measured values as given in patent US20220074941A1, “HSP90 COMBINATION THERAPY” (Sloan-Kettering Institute for Cancer Research, priority 2011, published 2022).

B1: KIAA1468 (protein, UniProt Q9P260 2-1216, looked up)
RAB11-binding protein RELCH: AAMAPGGSGSGGGVNPFLSDSDEDDDEVAATEERRAVLRLGAGSGLDPGSAGSLSPQDPVALGSSARPGLPGEASAAAVALGGTGETPARLSIDAIAAQLLRDQYLLTALELHTELLESGRELPRLRDYFSNPGNFERQSGTPPGMGAPGVPGAAGVGGAGGREPSTASGGGQLNRAGSISTLDSLDFARYSDDGNRETDEKVAVLEFELRKAKETIQALRANLTKAAEHEVPLQERKNYKSSPEIQEPIKPLEKRALNFLVNEFLLKNNYKLTSITFSDENDDQDFELWDDVGLNIPKPPDLLQLYRDFGNHQVTGKDLVDVASGVEEDELEALTPIISNLPPTLETPQPAENSMLVQKLEDKISLLNSEKWSLMEQIRRLKSEMDFLKNEHFAIPAVCDSVQPPLDQLPHKDSEDSGQHPDVNSSDKGKNTDIHLSISDEADSTIPKENSPNSFPRREREGMPPSSLSSKKTVHFDKPNRKLSPAFHQALLSFCRMSADSRLGYEVSRIADSEKSVMLMLGRCLPHIVPNVLLAKREELIPLILCTACLHPEPKERDQLLHILFNLIKRPDDEQRQMILTGCVAFARHVGPTRVEAELLPQCWEQINHKYPERRLLVAESCGALAPYLPKEIRSSLVLSMLQQMLMEDKADLVREAVIKSLGIIMGYIDDPDKYHQGFELLLSALGDPSERVVSATHQVFLPAYAAWTTELGNLQSHLILTLLNKIEKLLREGEHGLDEHKLHMYLSALQSLIPSLFALVLQNAPFSSKAKLHGEVPQIEVTRFPRPMSPLQDVSTIIGSREQLAVLLQLYDYQLEQEGTTGWESLLWVVNQLLPQLIEIVGKINVTSTACVHEFSRFFWRLCRTFGKIFTNTKVKPQFQEILRLSEENIDSSAGNGVLTKATVPIYATGVLTCYIQEEDRKLLVGFLEDVMTLLSLSHAPLDSLKASFVELGANPAYHELLLTVLWYGVVHTSALVRCTAARMFELTLRGMSEALVDKRVAPALVTLSSDPEFSVRIATIPAFGTIMETVIQRELLERVKMQLASFLEDPQYQDQHSLHTEIIKTFGRVGPNAEPRFRDEFVIPHLHKLALVNNLQIVDSKRLDIATHLFEAYSALSCCFISEDLMVNHFLPGLRCLRTDMEHLSPEHEVILSSMIKECEQKVENKTVQEPQGSMSIAASLVSEDTKTKFLNKMGQLTTSGAMLANVFQRKK
B2: HEATR2 (protein, UniProt Q86Y56 2-855, looked up)
Dynein axonemal assembly …: AALGVAEAVAAPHPAEGAETAEAVELSRALSRLLPGLEADSKPGRRRALEALRRALEEPGPAADPTAFQGPWARLLLPRLLRCLSDPAEGCRALAVHLLDLGLRRAARPRDALPRLLPALAARLAGPVPARRPPEACEELRLALVQLLGLAVDLCGAALAPHLDDALRALRCSLLDPFAAVRRESCSCAAALAQATPDHFHMQSESLIGPLMQTISHQHWKVRVAAIEATGAVIHFGNGKSVDDVLSHFAQRLFDDVPQVRRAVASVVGGWLLCLRDRYSFFHKLIPLLLSSLNDEVPEVRQLAASLWEDVGLQWQKENEEDLKDKLDFAPPTPPHYPPHERRPVLGCRELVFRNLSKILPALCHDITDWVVGTRVKSAQLLPVLLLHAEDHATQHLEVVLRTLFQACTDEEAAVVQSCTRSAELVGTFVSPEVFLKLILSTLKKTPSASGLLVLASAMRGCPREALQPHLAAIATELAQAHICQASENDLYLERLLLCVQALVSVCHEDCGVASLQLLDVLLTIVALAGATGLRDKAQETMDSLAMVEGVSSCQDLYRKHIGPLLERVTASHLDWTAHSPELLQFSVIVAQSGPALGEALPHVVPTLRACLQPSQDPQMRLKLFSILSTVLLRATDTINSQGQFPSYLETVTKDILAPNLQWHAGRTAAAIRTAAVSCLWALTSSEVLSAEQIRDVQETLMPQVLTTLEEDSKMTRLISCRIINTFLKTSGGMTDPEKLIRIYPELLKRLDDVSNDVRMAAASTLVTWLQCVKGANAKSYYQSSVQYLYRELLVHLDDPERAIQDAILEVLKEGSGLFPDLLVRETEAVIHKHRSATYCEQLLQHVQAVPATQ
B3: HEATR6 (protein, UniProt Q6AI08 1-1181, looked up)
HEAT repeat-containing …: MAAVQVVGSWPSVQPREAPREAIPERGNGFRLLSARLCALRPDDSSSARTEIHLLFDQLISENYSEGSGVAPEDVSALLVQACRLVPLNQNHLVSKVSQLIHHLLNRLQVIVDEQHLDFLLAYTISAIHQCSSWTHREILQALAALVYCNGSKCQKYLPELLGNTGLLMKLSDLAQSDPEVRRAAVHCMANLCLSVPGQPYLEEPYQNVCFQAFLTILQSPKSSDMDDITFCMLLQNALKGIQSLLNGGRMKLTQTDELGALLAVLKKFMFHGLPGLNIEMPTVLYPTPLPQYDGRTPIKPQQSESSASRPTLNKKKKSKVKPKKIQQGEEEEKESSGEIEAAPVTGTGRVNLHEGNTWCPSSLGVQSLPLDGSGAAEKDGVSSSFSSSSWKRVSSSESDFSDAEGGMQSKMRSYQAKVRQGALVCFLSTIKSIEKKVLYGYWSAFIPDTPELGSPQSVSLMTLTLKDPSPKTRACALQVLSAILEGSKQFLSVAEDTSDHRRAFTPFSVMIACSIRELHRCLLLALVAESSSQTVTQIIKCLANLVSNAPYDRLKLSLLTKVWNQIKPYIRHKDVNVRVSSLTLLGAIVSTHAPLPEVQLLLQQPCSSGLGNSNSATPHLSPPDWWKKAPAGPSLEETSVSSPKGSSEPCWLIRLCISIVVLPKEDSCSGSDAGSAAGSTYEPSPMRLEALQVLTLLARGYFSMTQAYLMELGEVICKCMGEADPSIQLHGAKLLEELGTGLIQQYKPDSTAAPDQRAPVFLVVMFWTMMLNGPLPRALQNSEHPTLQASACDALSSILPEAFSNLPNDRQMLCITVLLGLNDSKNRLVKAATSRALGVYVLFPCLRQDVIFVADAANAILMSLEDKSLNVRAKAAWSLGNLTDTLIVNMETPDPSFQEEFSGLLLLKMLRSAIEASKDKDKVKSNAVRALGNLLHFLQPSHIEKPTFAEIIEESIQALISTVLTEAAMKVRWNACYAMGNVFKNPALPLGTAPWTSQAYNALTSVVTSCKNFKVRIRSAAALSVPGKREQYGSVDQYARIWNALVTALQKSEDTIDFLEFKYCVSLRTQICQALIHLLSLASASDLPCMKETLELSGNMVQSYILQFLKSGAEGDDTGAPHSPQERDQMVRMALKHMGSIQAPTGDTARRAIMGFLEEILAVCFDSSGSQGALPGLTNQ
B4: CTTN (protein, UniProt Q14247 1-550, looked up)
Src substrate cortactin: MWKASAGHAVSIAQDDAGADDWETDPDFVNDVSEKEQRWGAKTVQGSGHQEHINIHKLRENVFQEHQTLKEKELETGPKASHGYGGKFGVEQDRMDKSAVGHEYQSKLSKHCSQVDSVRGFGGKFGVQMDRVDQSAVGFEYQGKTEKHASQKDYSSGFGGKYGVQADRVDKSAVGFDYQGKTEKHESQRDYSKGFGGKYGIDKDKVDKSAVGFEYQGKTEKHESQKDYVKGFGGKFGVQTDRQDKCALGWDHQEKLQLHESQKDYKTGFGGKFGVQSERQDSAAVGFDYKEKLAKHESQQDYSKGFGGKYGVQKDRMDKNASTFEDVTQVSSAYQKTVPVEAVTSKTSNIRANFENLAKEKEQEDRRKAEAERAQRMAKERQEQEEARRKLEEQARAKTQTPPVSPAPQPTEERLPSSPVYEDAASFKAELSYRGPVSGTEPEPVYSMEAADYREASSQQGLAYATEAVYESAEAPGHYPAEDSTYDEYENDLGITAVALYDYQAAGDDEISFDPDDIITNIEMIDDGWWRGVCKGRYGLFPANYVELRQ
B5: AIP (protein, UniProt O00170 1-330, looked up)
AH receptor-interacting …: MADIIARLREDGIQKRVIQEGRGELPDFQDGTKATFHYRTLHSDDEGTVLDDSRARGKPMELIIGKKFKLPVWETIVCTMREGEIAQFLCDIKHVVLYPLVAKSLRNIAVGKDPLEGQRHCCGVAQMREHSSLGHADLDALQQNPQPLIFHMEMLKVESPGTYQQDPWAMTDEEKAKAVPLIHQEGNRLYREGHVKEAAAKYYDAIACLKNLQMKEQPGSPEWIQLDQQITPLLLNYCQCKLVVEEYYEVLDHCSSILNKYDDNVKAYFKRGKAHAAVWNAQEAQADFAKVLELDPALAPVVSRELRALEARIRQKDEEDKARFRGIFSH

These molecules were tested on Hsp90 complexes in K562 cell extract (assay: Nano-LC-MS/MS of PU-beads pull-downs). Details: protein identified in PU-beads pull-down of K562 cell extract, Prep 1; QSTAR-Elite QTof MS.
Format: binding
Experimental: Protein cargo isolated from cell lysate with PU-beads or control-beads was subjected to proteomic analysis by nano liquid chromatography coupled to tandem mass spectrometry (nano LC-MS/MS). Initial protein identification was performed using the Mascot search engine, and was further evaluated using Scaffold Proteome Software (Tables 5a-d).
(§1) Lysates prepared as mentioned above were first pre-cleaned by incubation with control beads overnight at 4° C. […] Beads were washed with lysis buffer, proteins eluted by boiling in 2% SDS, separated on a denaturing gel and Coomassie stained according to manufacturer's procedure (Biorad). […] Analyses of the batch purified pools were done using a QSTAR-Elite hybrid quadrupole time-of-flight mass spectrometer (QTof MS) (AB/MDS Sciex), equipped with a nano spray ion source. Peptide mixtures (in 20 μL) are loaded onto a trapping guard column (0.3×5-mm PepMap C18 100 cartridge from LC Packings) using an Eksigent nano MDLC system (Eksigent Technologies, Inc) at a flow rate of 20 μL/min. […] Electrospray ionization (ESI) needle voltage was set at about 1800 V. The mass analyzer is operated in automatic, data-dependent MS/MS acquisition mode, with the threshold set to 10 counts per second of doubly or triply charged precursor ions selected for fragmentation scans. Survey scans of 0.25 sec are recorded from 400 to 1800 amu; up to 3 MS/MS scans are then collected sequentially for the selected precursor ions, recording from 100 to 1800 amu. The collision energy is automatically adjusted in accordance with the m/z value of the precursor ions selected for MS/MS. Selected precursor ions are excluded from repeated selection for 60 sec after the end of the corresponding fragmentation duty cycle. […] One missed tryptic cleavage site was allowed, precursor ion mass tolerance=0.4 Da fragment ion mass tolerance=0.4 Da, protein modifications were allowed for Met-oxide, Cys-acrylamide and N-terminal acetylation. MudPit scoring was typically applied with ‘require bold red’ activated, and using significance threshold score p<0.05. Unique peptide counts (or ‘spectral counts’) and percent sequence coverages for all identified proteins were exported to Scaffold Proteome Software (version 2_06_01, www.proteomesoftware.com) for further bioinformatic analysis (Table 5a). Using output from Mascot, Scaffold validates, organizes, and interprets mass spectrometry data, allowing more easily to manage large amounts of data, to compare samples, and to search for protein modifications.

Molecule | Number of Assigned Spectra, K562 Prep 1
B1 | 0
B2 | 5
B3 | 2
B4 | 6
B5 | 10

Same assay, conditions: protein identified in PU-beads pull-down of K562 cell extract, Prep 2; QSTAR-Elite QTof MS

Molecule | Number of Assigned Spectra, K562 Prep 2
B1 | 0
B2 | 2
B3 | 1
B4 | 6
B5 | 0

These molecules were tested on Hsp90 complexes in Mia-PaCa-2 cell extract (assay: Nano-LC-MS/MS of PU-beads pull-downs). Details: protein identified in PU-beads pull-down of Mia-PaCa-2 cell extract; QSTAR-Elite QTof MS.
Format: binding, human
Experimental: as §1

Molecule | Number of Assigned Spectra, Mia-Paca 2
B1 | 3
B2 | 11
B3 | 0
B4 | 2
B5 | 0
